Reference: article PMC4633989

Molecular target: Nrx-1 C-term peptide (last 10 C-terminal residues of Drosophila Nrx-1) (Drosophila) (UniProt Q3KN41)
Assay: ITC; Nrx-1 C-term peptide with the PDZ domains of Spn or Syd-1; details in the Supplementary Methods

Sequence of UniProt Q3KN41 (Q3KN41 whole entry, looked up, the tested form may be a part): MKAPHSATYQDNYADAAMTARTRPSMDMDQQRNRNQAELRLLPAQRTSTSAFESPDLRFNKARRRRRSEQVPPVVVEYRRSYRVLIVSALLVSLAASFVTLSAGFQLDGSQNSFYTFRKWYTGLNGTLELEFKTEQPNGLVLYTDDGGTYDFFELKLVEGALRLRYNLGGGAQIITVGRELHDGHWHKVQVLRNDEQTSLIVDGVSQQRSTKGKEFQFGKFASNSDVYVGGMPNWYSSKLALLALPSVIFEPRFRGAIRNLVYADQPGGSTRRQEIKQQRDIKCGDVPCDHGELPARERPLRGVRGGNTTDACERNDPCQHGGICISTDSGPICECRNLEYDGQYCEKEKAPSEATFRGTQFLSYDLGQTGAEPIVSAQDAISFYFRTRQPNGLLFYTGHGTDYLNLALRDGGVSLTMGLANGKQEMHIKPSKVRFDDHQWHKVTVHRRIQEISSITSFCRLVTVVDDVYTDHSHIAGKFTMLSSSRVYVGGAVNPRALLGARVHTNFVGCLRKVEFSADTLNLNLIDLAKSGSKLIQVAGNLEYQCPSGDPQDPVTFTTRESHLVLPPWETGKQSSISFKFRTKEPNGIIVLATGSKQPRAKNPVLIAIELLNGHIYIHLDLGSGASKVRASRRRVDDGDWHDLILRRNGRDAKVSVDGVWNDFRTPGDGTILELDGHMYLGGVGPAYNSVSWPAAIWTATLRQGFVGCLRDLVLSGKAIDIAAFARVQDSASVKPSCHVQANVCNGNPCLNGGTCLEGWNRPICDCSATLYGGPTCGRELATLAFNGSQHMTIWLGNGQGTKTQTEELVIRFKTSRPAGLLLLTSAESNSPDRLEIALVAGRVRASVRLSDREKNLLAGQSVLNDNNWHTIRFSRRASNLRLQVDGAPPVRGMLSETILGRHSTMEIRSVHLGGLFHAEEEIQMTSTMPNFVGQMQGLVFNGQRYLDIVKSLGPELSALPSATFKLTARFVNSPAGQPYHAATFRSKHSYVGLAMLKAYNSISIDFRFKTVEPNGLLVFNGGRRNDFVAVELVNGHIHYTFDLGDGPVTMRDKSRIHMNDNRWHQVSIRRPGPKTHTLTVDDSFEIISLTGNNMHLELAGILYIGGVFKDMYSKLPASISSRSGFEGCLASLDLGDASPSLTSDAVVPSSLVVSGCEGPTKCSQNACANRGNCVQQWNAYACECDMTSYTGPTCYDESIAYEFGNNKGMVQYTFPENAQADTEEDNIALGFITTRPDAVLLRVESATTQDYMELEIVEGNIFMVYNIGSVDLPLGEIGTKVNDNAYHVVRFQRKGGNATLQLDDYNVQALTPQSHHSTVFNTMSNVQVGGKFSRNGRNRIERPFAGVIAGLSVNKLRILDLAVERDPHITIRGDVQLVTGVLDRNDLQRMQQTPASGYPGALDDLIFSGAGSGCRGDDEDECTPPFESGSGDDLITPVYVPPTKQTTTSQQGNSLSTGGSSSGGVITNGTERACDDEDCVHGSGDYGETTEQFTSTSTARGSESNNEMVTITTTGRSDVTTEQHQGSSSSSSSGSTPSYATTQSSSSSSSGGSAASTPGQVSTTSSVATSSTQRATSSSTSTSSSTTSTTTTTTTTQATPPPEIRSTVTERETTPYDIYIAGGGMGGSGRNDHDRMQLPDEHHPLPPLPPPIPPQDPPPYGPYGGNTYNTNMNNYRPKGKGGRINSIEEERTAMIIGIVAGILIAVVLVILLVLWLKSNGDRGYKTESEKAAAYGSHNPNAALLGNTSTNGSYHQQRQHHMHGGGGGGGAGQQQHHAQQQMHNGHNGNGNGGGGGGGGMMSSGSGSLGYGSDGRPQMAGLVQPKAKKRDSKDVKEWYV

Row | Substance | Kd
1 | Drosophila Spn-PDZ domain (dmSpn residues 1,258-1,347) (domain or fragment) | 50 µM
2 | Drosophila Syd-1-PDZ domain (dmSyd-1 residues 155-242) (domain or fragment) | 5 µM
